Publication PMC3098157

Key:
FLAG-tagged LEDGF/p75 WT = FLAG-tagged LEDGF/p75 WT (UniProt O75475)
[1] = biological target: FLAG-tagged LEDGF/p75 ΔPWWP
[2] = biological target: LEDGF/p75 WT (Lens epithelium-derived growth factor/p75) (UniProt O75475)
[3] = biological target: LEDGF/p75 ΔPWWP (stably expressed in HEK293T-derived cells)

Substance | salt extraction assay, transient coexpression: NaCl needed to extract LEDGF/p75 WT from chromatin with integrase WT (250 mM without integrase) (FLAG-tagged LEDGF/p75 WT) | salt extraction assay, transient coexpression: NaCl needed for complete extraction of LEDGF/p75 ΔPWWP from chromatin with integrase WT (150 mM without integrase) [1] | salt extraction assay: percent of LEDGF/p75 WT extracted from chromatin at NaCl above 200 mM in cells co-expressing HIV-1 integrase (around 70% without integrase) [2] | salt extraction assay: percent of LEDGF/p75 ΔPWWP extracted from chromatin at 100 mM and 150 mM NaCl in cells co-expressing HIV-1 integrase (30% and 70% without integrase) [3]
Myc-eGFP-tagged HIV-1 integrase WT (enzyme) | > 300 mM | > 200 mM |  | 
Myc-tagged HIV-1 integrase (enzyme) |  |  | < 1% | < 2%
